According to article PMC5766158 (Nucleic Acids Research, 2017):
Where a chain is given by its changes, count along the chain named. In names and notes the source's numbering stands.

T1: POLA2-FLAG (human, UniProt Q14181 1-598)
T1 sequence: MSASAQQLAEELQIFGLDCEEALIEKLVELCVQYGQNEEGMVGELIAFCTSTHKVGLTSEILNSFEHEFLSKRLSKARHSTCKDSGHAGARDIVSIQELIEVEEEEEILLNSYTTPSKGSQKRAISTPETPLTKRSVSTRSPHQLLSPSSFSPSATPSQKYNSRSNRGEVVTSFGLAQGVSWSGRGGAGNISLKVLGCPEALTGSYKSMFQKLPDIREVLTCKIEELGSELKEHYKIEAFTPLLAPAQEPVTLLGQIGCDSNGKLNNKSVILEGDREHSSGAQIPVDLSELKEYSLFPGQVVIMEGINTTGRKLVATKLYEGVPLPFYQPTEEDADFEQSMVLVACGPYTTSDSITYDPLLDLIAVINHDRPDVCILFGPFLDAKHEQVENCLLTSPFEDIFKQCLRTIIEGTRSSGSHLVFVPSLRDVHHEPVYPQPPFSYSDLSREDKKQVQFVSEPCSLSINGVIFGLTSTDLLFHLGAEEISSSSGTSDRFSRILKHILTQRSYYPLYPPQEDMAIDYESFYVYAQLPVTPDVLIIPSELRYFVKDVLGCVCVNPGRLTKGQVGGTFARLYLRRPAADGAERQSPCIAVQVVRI

T2: POLA2(1-414)-FG3 (human, UniProt Q14181 1-414)
T2 sequence: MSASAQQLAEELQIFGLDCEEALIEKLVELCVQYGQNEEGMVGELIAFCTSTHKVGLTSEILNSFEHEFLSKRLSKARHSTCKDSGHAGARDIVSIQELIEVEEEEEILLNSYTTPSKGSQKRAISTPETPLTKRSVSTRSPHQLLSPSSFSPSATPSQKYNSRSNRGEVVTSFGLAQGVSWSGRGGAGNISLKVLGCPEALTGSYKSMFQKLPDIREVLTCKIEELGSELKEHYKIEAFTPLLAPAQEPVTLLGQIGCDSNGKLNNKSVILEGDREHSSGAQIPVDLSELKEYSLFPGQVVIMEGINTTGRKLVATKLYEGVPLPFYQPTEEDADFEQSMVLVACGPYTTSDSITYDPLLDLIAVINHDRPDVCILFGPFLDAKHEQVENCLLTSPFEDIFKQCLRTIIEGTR

B1: STN1N-Strep R135T (domain or fragment)
chain: MQPGSSRCEEETPSLLWGLDPVFLAFAKLYIRDILDMKESRQVPGVFLYNGHPIKQVDVLGTVIGVRERDAFYSYGVDDSTGVINCICWKKLNTESVSAAPSAARELSLTSQLKKLQETIEQKTKIEIGDTIRVTGSIRTYREEREIHATTYYKVDDPVWNIQIARMLELPTIYRKVYDQPFHSSALEKE
B2: STN1N-Strep R135W (domain or fragment)
chain: B1 chain with T135W
B3: STN1N-Strep OBM-2 (W89A/R139A/Y141A) (domain or fragment)
chain: B1 chain with W89A, T135R, R139A, Y141A
B4: STN1N-Strep D157Y (domain or fragment)
chain: B1 chain with T135R, D157Y
B5: STN1N-Strep (domain or fragment)
chain: B1 chain with T135R
B6: POLA2(1-334)-FG3 (domain or fragment)
chain: MSASAQQLAEELQIFGLDCEEALIEKLVELCVQYGQNEEGMVGELIAFCTSTHKVGLTSEILNSFEHEFLSKRLSKARHSTCKDSGHAGARDIVSIQELIEVEEEEEILLNSYTTPSKGSQKRAISTPETPLTKRSVSTRSPHQLLSPSSFSPSATPSQKYNSRSNRGEVVTSFGLAQGVSWSGRGGAGNISLKVLGCPEALTGSYKSMFQKLPDIREVLTCKIEELGSELKEHYKIEAFTPLLAPAQEPVTLLGQIGCDSNGKLNNKSVILEGDREHSSGAQIPVDLSELKEYSLFPGQVVIMEGINTTGRKLVATKLYEGVPLPFYQPTEED
B7: full length STN1-Strep (STN1F-Strep) (natural protein)
chain: MQPGSSRCEEETPSLLWGLDPVFLAFAKLYIRDILDMKESRQVPGVFLYNGHPIKQVDVLGTVIGVRERDAFYSYGVDDSTGVINCICWKKLNTESVSAAPSAARELSLTSQLKKLQETIEQKTKIEIGDTIRVRGSIRTYREEREIHATTYYKVDDPVWNIQIARMLELPTIYRKVYDQPFHSSALEKEEALSNPGALDLPSLTSLLSEKAKEFLMENRVQSFYQQELEMVESLLSLANQPVIHSASSDQVNFKKDTTSKAIHSIFKNAIQLLQEKGLVFQKDDGFDNLYYVTREDKDLHRKIHRIIQQDCQKPNHMEKGCHFLHILACARLSIRPGLSEAVLQQVLELLEDQSDIVSTMEHYYTAF
B8: POLA2OB-FG3 (domain or fragment)
chain: GSYKSMFQKLPDIREVLTCKIEELGSELKEHYKIEAFTPLLAPAQEPVTLLGQIGCDSNGKLNNKSVILEGDREHSSGAQIPVDLSELKEYSLFPGQVVIMEGINTTGRKLVATKLYEGVPLPFYQPTEED

How the values were obtained:
POLA2-FLAG = target: T1, POLA2-FLAG; test: cell-based or functional assay
POLA2(1-414)-FG3 = target: T2, POLA2(1-414)-FG3; test: pull-down
POLA2(1-334)-FG3 = target: B6; test: pull-down
[1] = target: B7; test: pull-down
STN1N-Strep = target: B5; test: pull-down

For B1, the “PP stimulatory activity against wild-type STN1N (1.5 uM, poly-dT template)” value (POLA2-FLAG) was 2 fold.

B2: binds (POLA2(1-414)-FG3).

B3: binds (POLA2(1-414)-FG3).

B4: binds (POLA2(1-414)-FG3).

B5: binds (POLA2(1-334)-FG3); binds (POLA2(1-414)-FG3).

B6: binds [1].

B7: binds (POLA2(1-414)-FG3).

B8: binds (STN1N-Strep).
